Assay results published in patent US20090169546A1 (published 2009).
No end group written: not given here.

T1: native nuclear HMG1 prepared from 293H cells by freeze thaw (human, UniProt P09429 1-215)
T1 sequence (looked up): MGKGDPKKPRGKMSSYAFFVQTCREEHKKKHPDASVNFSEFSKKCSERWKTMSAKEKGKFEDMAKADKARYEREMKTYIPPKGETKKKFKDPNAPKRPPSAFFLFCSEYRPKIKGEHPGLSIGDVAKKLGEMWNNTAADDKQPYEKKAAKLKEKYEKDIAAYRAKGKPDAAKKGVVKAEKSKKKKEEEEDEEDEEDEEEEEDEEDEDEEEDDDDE

T2: recombinant HMG1 produced in E. coli as calmodulin binding protein (CBP) fusion (human)
T2 chain: T1 sequence (looked up)

T3: HMGB1 B-box peptide 91-108 (human, also: biotinylated, site not given here)
T3 peptide: DPNAPKRPPSAFFLFCSE

T4: nuclear HMGB1 in HUVEC cells (UniProt P09429 1-215)
T4 construct: HUVEC are human cells; also called nuclear HMGB1 (immunostaining)
T4 sequence (looked up): T1 sequence (looked up)

T5: activated HMG1 prepared from LPS stimulated THP-1 cells (human, UniProt P09429 1-215)
T5 construct: also called Native HMGB
T5 sequence (looked up): T1 sequence (looked up)

T6: released HMG1 from the conditioned media of necrotic 293H cells (human, UniProt P09429 1-215)
T6 construct: also called necrotic HMG1
T6 sequence (looked up): T1 sequence (looked up)

T7: actively secreted HMGB1 of LPS activated HUVEC cells (UniProt P09429 1-215)
T7 sequence (looked up): T1 sequence (looked up)

B1: anti-HMG1 antibody S2 (antibody, V domains shown)
VH: EVQLLESGGGLVQPGGSLRLSCAASGFTFSGYMMVWVRQAPGKGLEWVSRISPSGGQTGYADSVKGRFTISRDNSKNTLYLQMNSLRAEDTAVYYCAREEGGSYGAFDIWGQGTMVTVSS
VL: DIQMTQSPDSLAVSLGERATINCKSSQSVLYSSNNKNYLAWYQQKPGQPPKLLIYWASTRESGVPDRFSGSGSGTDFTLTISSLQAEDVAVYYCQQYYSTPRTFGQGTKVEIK
notes: also called ATCC PTA-6142
B2: anti-HMG1 antibody S6 (antibody, V domains shown)
VH: EVQLLESGGGLVQPGGSLRLSCAASGFTFSWYDMSWVRQAPGKGLEWVSRISPSGGYTMYADSVKGRFTISRDNSKNTLYLQMNSLRAEDTAVYYCARLEVGATSGGTAFDIWGQGTMVTVSS
VL: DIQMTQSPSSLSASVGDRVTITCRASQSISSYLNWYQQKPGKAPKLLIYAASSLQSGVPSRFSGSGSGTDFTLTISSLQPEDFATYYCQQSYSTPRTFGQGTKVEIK
notes: also called ATCC PTA-6143
B3: anti-HMG1 antibody S16 (antibody, V domains shown)
VH: EVQLLESGGGLVQPGGSLRLSCAASGFTFSWYSMLWVRQAPGKGLEWVSYISPSGGFTNYADSVKGRFTISRDNSKNTLYLQMNSLRAEDTAVYYCARWDYNSGWYYDHWGQGTLVTVSS
VL: DIQMTQSPDTLSLSPGERATLSCRASQSVNSRNLAWYQQKPGQAPRLLIYGASTRATGIPDRFSGSVSGTEFTLTISSLQPDDFATYYCQQYNSYFTFGQGTKLEIK
notes: also called ATCC PTA-6259
B4: anti-HMG1 antibody G4 (antibody, V domains shown)
VH: EVQLLESGGGLVQPGGSLRLSCAASGFTFSWYDMTWVRQAPGKGLEWVSSISPSGGYTKYADSVKGRFTISRDNSKNTLYLQMNSLRAEDTAVYYCTTEFYDYLDVWGKGTTVTVSS
VL: DIQMTQSPGTLSLSPGEGATLSCRASQSVSSTYLAWYQQKPGQAPRLLIYEASKRATGTPARFSGSGSGTDFTLSISSLEPEDFAVYYCQHRHNWPPQWTFGQGTKVEVK
notes: also called ATCC PTA-6258
B5: anti-HMG1 antibody S10 (antibody, V domains shown)
VH: EVQLLESGGGLVQPGGSLRLSCAASGFTFSWYDMWWVRQAPGKGLEWVSWIVPSGGITAYADSVKGRFTISRDNSKNTLYLQMNSLRAEDTATYYCARGNYGPSPFDYWGQGTLVTVSS
VL: DIQMTQSPGTLSLSPGERATLSCRATQSVRKNFLAWYQQKPGQAPRLLIYDASSRATGIPDRFSGSGSGTDFTLTISRLEPEDFAVYYCQQYGNSPIIFGQGTRLEIK

Experiments:
[1] = target: T1, native nuclear HMG1 prepared from 293H …; test: HMG1 capture (sandwich) ELISA, FIG. 4B
Procedure: (§1) Sandwich ELISA (soluble HMG1): Immunoplates (EIA/RIA plate, High binding, Costar) were coated with anti human IgG Fc at 10 μg/ml in PBS (pH 7.2) and incubated at 4° C. overnight. The coating reagent was removed and the plates were rinsed briefly with PBS. The plates were then blocked with 4% milk for 1 hour at 37° C. and rinsed with PBS. The anti-HMG1 antibodies were diluted in 4% milk. For serial dilutions, the antibodies were used at a starting concentration of 20 μg/ml. The diluted anti-HMG1 antibodies were then added into plate and incubated for 1 hr at 37° C. The plate was then washed 10 times with PBST (PBS/0.1% tween 20) and incubate with antigen (HMGB1, 2 μg/ml; or 0.7 μg/ml for native HMGB1) in 4% milk and incubated at 37° C. for 1 h. The plate was then wash 10 times and incubated with mouse anti-HMGB1, 1 μg/ml in 4% milk at 37° C. for 1 h. The plate was washed 10 times and incubated with anti-mouse IgG-HRP at 1:1000 at 37° C. for 1 h. The plate was then washed and developed. HRP activity was detected with Sureblue HRP substrate (KPL). Plates were read at 450 nm using a Kinetic Microplate Reader (Molecular Devices).

[2] = target: T2, recombinant HMG1 produced in E. coli as …; test: ELISA; HMGB1 preincubated with antibody, then added to immobilised RAGE-Fc
Procedure: HMG1 binding to RAGE-Ig by ELISA: 50 μl/well of RAGE-Fc fusion protein at 5 μg/ml in PBS was added to each well of an ELISA plate and incubated overnight at 4° C. The plate was then blocked with 200 μl of 5% milk at 37° C. for 1 hr and washed 3× with PBS/Tween. 50 μl/well of diluted HMGB1 solution. For dose curves, HMGB1 concentrations started at 4 ug/ml in PBS. For antibody blocking the HMGB1 was preincubated in another plate with human anti-HMG1 antibodies or buffer, then transferred to the RAGE-coated plate. The plates were then incubated at room temperature for 2 hours and washed 3×. To detect any HMG1 bound to the immobilized RAGE-Fc a mixture of biotinylated mouse anti-HMG1 mAbs (10D4, 4H11, 3E10 and 5C12) each at 1 ug/ml, total Ab: 4 ug/ml, were added to each well and the plate was incubated for 1 hour at room temperature. The plate was then washed and Strepavidin-HPR was added to each well and incubated 15 min. The plate was then washed 3× and blotted dry. 100 μl of TMB developing agent was added and the plate read at 650 nm. Values were calculated as percent of inhibition with HMG1 alone equal to 0% inhibition. The data in FIG. 9 and summarized in Table 1 represent the average of two separate experiments.

[3] = target: T2, recombinant HMG1 produced in E. coli as …; test: cell-based or functional assay
[4] = target: T2, recombinant HMG1 produced in E. coli as …; test: BIAcore 3000; mAb amine-coupled to CM5, HMG1 injected in two-fold dilutions; steady-state model
Procedure: HMG1 Binding Affinity via BIAcore Analysis: All experiments were performed on a BIAcore 3000 instrument (BIAcore, Inc., Piscataway, N.J.). Briefly, each mAb was immobilized to a CM5 sensor chip using a standard amine coupling chemistry. Separately a reference (control) flow cell was also prepared. Two-fold, serial dilutions of HMG1 in instrument buffer were sequentially injected at a slow flow rate over the individual mAb and reference flow-cell surfaces. Following the binding and dissociation of HMG1, the mAbs surfaces were regenerated with a brief pulse of 1M NaCl-50 mM NaOH. At the end of each experiment, the binding curves were evaluated using a steady-state model available through the BIAevaluation software supplied by BIAcore, Inc. (Piscataway, N.J.).

[5] = target: T3, HMGB1 B-box peptide 91-108; test: ELISA on biotinylated peptides captured on avidin
Procedure: The plate was then blocked with 4% milk powder dissolved in PBS at 37° C. for 1 hour. The blocking solution was removed and replaced with human anti-HMG1 antibodies at various concentrations (see FIGS. 5A-B). […] HRP activity was detected with Sureblue HRP substrate (KPL). Plates were read at 450 nm using a Kinetic Microplate Reader (Molecular Devices). […] After washing and blocking with 1% BSA in PBS, the biotinylated peptides were individually added into the avidin coated wells and incubated for 30 min at room temperature. The serial diluted antibody G4, S16 and S6 at the initial concentration at 10 μg/ml were then transferred into the wells followed by adding mouse anti human IgG-HRP conjugate (Pierce). Detection was accomplished by adding 50 μl of tetramethylbenzidine (TMB) substrate (KPL) and the absorbance was read at 450 nm.

[6] = target: T4, nuclear HMGB1 in HUVEC cells; test: immunofluorescence on HUVEC, antibody 1 ug/ml
Procedure: (§2) Immunofluorescence: Intracytoplasmic (ic) HMGB1 was quantitated by direct immunofluorescence. HUVEC were harvested by trypsin-EDTA treatment and seeded on a glass coverslip. Once the cells are settled, they were stimulated with 0.2 μg/ml of LPS (Sigma) for 4 hours. The cells were fixed in 2% paraformaldehyde for 15 min and then permeabilized in 0.2% Triton X-100 for 2 min. Fixed and permeabilized cells were incubated with anti-HMGB1 antibodies at 1 μg/ml for 1 hour at room temperature. Cells were then washed to remove excess or nonspecifically bound primary antibody followed by incubation with anti human IgG conjugated with fluorescence (Pierce). The sections were mounted with fluoromount (Southern Associates, Birmingham, Ala.), and the images were processed with a Nikon microscope (Japan) and a SPOT imaging system (Diagnostic Instrument).
(§3) As noted above, the different antibodies bind differently to HMGB1 isolated or prepared from different sources. To expand this observation the anti-HMBG1 antibodies G4 and S6 were used for immunostaining of untreated or LPS activated THp-1 (not shown) and HUVEC cells (FIG. 4F). […] As nuclear HMHB1 binds to DNA and histones, which might be disrupted after cell freeze and thaw we immunoprecipitate freeze thaw preparation and probed for histones by Western Blot. No DNA or histones could be detected from this preparation (data not shown). […]

[7] = target: T5, activated HMG1 prepared from LPS …; test: sandwich ELISA, relative binding
Procedure: as §1

[8] = target: T1, native nuclear HMG1 prepared from 293H …; test: sandwich ELISA, relative binding
Procedure: as §1

[9] = target: T6, released HMG1 from the conditioned …; test: sandwich ELISA, relative binding
Procedure: as §1

[10] = target: T7, actively secreted HMGB1 of LPS …; test: immunofluorescence on LPS treated HUVEC, antibody 1 ug/ml
Procedure: as §2, §3

Binder	binding result [1]	percent inhibition of HMG1 binding to RAGE [2] [%]	IC50, inhibition of rHMG1 stimulated IL-1β release from human PBMCs [3] [µg/mL]	IC50, inhibition of rHMG1 stimulated IL-6 release from human PBMCs [3] [nM]	IC50, inhibition of rHMG1 stimulated TNF-α release from human PBMCs [3] [µg/mL]	Kd [4] [nM]	IC50, inhibition of HMG1 stimulated NO release from macrophages [3] [µg/mL]	binding result [5]	IC50, inhibition of rHMG1 stimulated IL-12 release from human PBMCs [3] [µg/mL]	binding result [6]	binding result [7]	binding result [8]	binding result [9]	binding result [10]
B1	binds	≥ 35	0.22	0.163	0.0642	36								
B2		≥ 35	0.0232	0.174	0.0182	39	4.15							
B3		≥ 35	6.05	0.56	1.44	23		binds	1.24					
B4			5.01	0.9	5.51	30		binds	0.715	binds	binds	binds	binds	binds
B5	binds	≥ 35	2.59	0.324	0.875	54			1.13					
